# Test results: paper PMC4491177, “Co-translational capturing of nascent ribosomal proteins by their dedicated chaperones” (Nature Communications, 2015)
# T1: Rps3 (endogenous, nascent) (S. cerevisiae (endogenous in yeast cells)) (UniProt P05750)
# T1 sequence: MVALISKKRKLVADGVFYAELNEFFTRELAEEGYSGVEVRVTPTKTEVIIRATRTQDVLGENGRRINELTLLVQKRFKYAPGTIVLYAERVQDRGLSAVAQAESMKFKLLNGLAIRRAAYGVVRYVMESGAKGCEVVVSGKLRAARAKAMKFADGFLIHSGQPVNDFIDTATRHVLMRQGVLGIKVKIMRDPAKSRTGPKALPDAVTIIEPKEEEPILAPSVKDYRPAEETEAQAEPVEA
# T2: Rpl5 (endogenous, nascent) (S. cerevisiae (endogenous in yeast cells)) (UniProt P26321)
# T2 sequence: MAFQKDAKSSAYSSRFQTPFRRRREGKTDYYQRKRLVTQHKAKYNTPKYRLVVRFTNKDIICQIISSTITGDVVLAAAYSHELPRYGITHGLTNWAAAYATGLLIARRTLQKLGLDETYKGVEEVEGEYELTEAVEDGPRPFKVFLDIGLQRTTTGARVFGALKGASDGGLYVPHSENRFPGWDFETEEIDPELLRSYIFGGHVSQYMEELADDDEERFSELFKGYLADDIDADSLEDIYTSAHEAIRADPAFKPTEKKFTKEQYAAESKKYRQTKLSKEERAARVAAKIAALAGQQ
# Assays:
# [1] = target: CtSqt1.52C (WD-repeat β-propeller domain of ctSqt1); assay: isothermal titration calorimetry (ITC), C. thermophilum; format: binding, Chaetomium thermophilum
# Method: ITC experiments were performed on a MicroCal ITC 2000 instrument (GE Healthcare). The following peptides, corresponding to the N-terminal 19 (without N-terminal methionine) or 20 amino acids of S. cerevisiae and C. thermophilum Rpl10, were synthesized with a free acid group at the C terminus (peptides&elephants): Rpl10(1–20) NH2-[…]-COOH, Rpl10(2–20) NH2-[…]-COOH, ctRpl10(1–20) NH2-[…]-COOH and ctRpl10(2–20) NH2-[…]-COOH. Peptides (1 mg each) were dissolved in the appropriate volume of gel-filtration buffer (20 mM HEPES–NaOH (pH 7.5), 200 mM NaCl, 20 mM KCl and 20 mM MgCl2), which was used for the purification of ScSqt1.53C and ctSqt1.52C, to obtain 1 mM stock solutions. Concentrations of proteins were determined by measuring the A280 using a NanoDrop Lite spectrophotometer (Thermo Scientific). For determination of the C. thermophilum Sqt1/L10-N binding, 200 μl of ctSqt1.52C (10 μM) was added to the sample cell and 2 μl of 100 μM solutions of the peptides was titrated in at 25 °C. For determination of the S. cerevisiae Sqt1/L10-N binding, 200 μl of ScSqt1.53C (100 μM) was added to the sample cell and 2 μl of 1 mM solutions of the peptides were titrated in at 15 °C. ITC data were processed using the Origin ITC Software (OriginLab) and thermodynamic parameters were obtained by fitting the data to a One Set of Sites binding model.
# [2] = system: Rpl10; assay: Y2H interaction with Rpl10; format: binding, S. cerevisiae; conditions: Sqt1 variants; PJ69-4A, HIS3 and ADE2 reporters, 3 days at 30 °C
# Method: For Y2H interaction assays, plasmids expressing bait proteins, fused to the Gal4 DNA-binding domain (G4BD), and prey proteins, fused to the Gal4 activation domain (G4AD), were co-transformed into reporter strain PJ69-4A. Y2H interactions were documented by spotting representative transformants in 10-fold serial dilution steps onto SC-Trp-Leu, SC-Trp-Leu-His (HIS3 reporter) and SC-Trp-Leu-Ade (ADE2 reporter) plates, which were incubated for 3 days at 30 °C. Growth on SC-Trp-Leu-His plates is indicative of a weak/moderate interaction, whereas only relatively strong interactions permit growth on SC-Trp-Leu-Ade plates.
# [3] = target: T1, Rps3 (endogenous, nascent) (S. cerevisiae (endogenous in yeast cells))
# [4] = target: T2, Rpl5 (endogenous, nascent) (S. cerevisiae (endogenous in yeast cells))
# [5] = system: Sqt1-Flag; assay: in vitro binding assay, Ni-affinity co-purification of Sqt1-Flag; design: species or system S. cerevisiae; conditions: co-expression in E. coli, C-terminally (His)6-tagged Rpl10, Ni-affinity, SDS–PAGE and western blot
# Method: For in vitro binding assays between Rpl10-(His)6 and Sqt1-Flag or between ctRpl10-(His)6 and ctSqt1, proteins were co-expressed from pETDuet-1 (Novagen) in Rosetta(DE3) (Novagen) or BL21(DE3) (Novagen) E. coli cells, respectively. Cells were grown in 200 ml of lysogeny broth medium and protein expression was induced at an OD600 of ∼0.6–0.8 by the addition of isopropyl-β-D-thiogalactoside to a final concentration of 0.5 mM. After 5 h of growth at 30 °C, cells were harvested and stored at −80 °C. Cells were resuspended in 25 ml lysis buffer (50 mM Tris-HCl (pH 7.5), 200 mM NaCl, 1.5 mM MgCl2 and 5% glycerol) and lysed with a M-110L Microfluidizer (Microfluidics). The lysate (30 ml volume) was adjusted by the addition of 300 μl 10% NP-40 to 0.1% NP-40 (note that from here onwards all buffers contained 0.1% NP-40). An aliquot of 100 μl of total extract (sample T) was taken and mixed with 100 μl of 6 × loading buffer. The total extract was then centrifuged at 4 °C for 20 min at 14,000 r.p.m. The soluble extract was transferred to a 50-ml Falcon tube and, as above, an aliquot of 100 μl of soluble extract (sample S) was taken and mixed with 100 μl of 6 × loading buffer. The insoluble pellet fraction (sample P) was resuspended in 3 ml of lysis buffer, and 10 μl thereof were mixed with 90 μl of lysis buffer and 100 μl of 6 × loading buffer. […]
# [6] = soluble expression in E. coli; format: physicochemical; conditions: data not shown for Rpl10
molecule,measurement,setting,value
"H-MARRPARCYRYCKNKPYPKS-OH (cysteine pairing not given here) [CtL10-N(1-20), N-terminal 20 amino acids of C. thermophilum Rpl10]",Kd,"[1]; 10 μM ctSqt1.52C in cell, 2 μl of 100 μM peptide titrated, 25 °C, 20 mM HEPES–NaOH (pH 7.5), 200 mM NaCl, 20 mM KCl, 20 mM MgCl2, One Set of Sites, read-out: dissociation constant (Kd)",~442 nM
same,effect of Met1 on the interaction,[1]; ctSqt1,did not abolish the interaction completely
Sqt1 (53C construct): WD-repeat β-propeller domain of Sqt1; deletion of amino acids 1–52 (protein) MSNNSLTYFDKHTDSVFAIGHHPNLPLVCTGGGDNLAHLWTSHSQPPKFAGTLTGYGESVISCSFTSEGGFLVTADMSGKVLVHMGQKGGAQWKLASQMQEVEEIVWLKTHPTIARTFAFGATDGSVWCYQINEQDGSLEQLMSGFVHQQDCSMGEFINTDKGENTLELVTCSLDSTIVAWNCFTGQQLFKITQAEIKGLEAPWISLSLAPETLTKGNSGVVACGSNNGLLAVINCNNGGAILHLSTVIELKPEQDELDASIESISWSSKFSLMAIGLVCGEILLYDTSAWRVRHKFVLEDSVTKLMFDNDDLFASCINGKVYQFNARTGQEKFVCVGHNMGVLDFILLHPVANTGTEQKRKVITAGDEGVSLVFEVPN,Y2H interaction with Rpl10,[2],sufficient to mediate the interaction both with full-length or the N-terminal residues
Yar1-TAP (natural protein) MGLHSEPLDQEDQDTIILDARAGDLDSLKDIFTTLVSPELLSTCKESESDSTALHMAAANGHIETVRYILETVSRANSAEDLKAFVNEVNKTGNTALHWASLNGKLDVVKLLCDEYEADPFIRNKFGHDAIFEAENSGKEEVETYFLKKYDVEPEDDEEDTQTEGKNSVQITKGTEIEQVTKEATEALREETEKLNINKD,"enrichment of the RPS3 mRNA in the Yar1-TAP purification (IgG-sepharose pull-down from cycloheximide-treated cells, TEV eluate, real-time qRT–PCR)",[3],100 fold
"Sqt1 Glu315 to lysine: Sqt1 variant, Glu315 mutated to lysine (protein, UniProt P35184 1-431, looked up, variant E315K) Ribosome assembly protein SQT1: MEPQEEFITTEEVEQEIVPTVEVEQDVPVDIEGENDDDDEMMNDDEEALEVDMSNNSLTYFDKHTDSVFAIGHHPNLPLVCTGGGDNLAHLWTSHSQPPKFAGTLTGYGESVISCSFTSEGGFLVTADMSGKVLVHMGQKGGAQWKLASQMQEVEEIVWLKTHPTIARTFAFGATDGSVWCYQINEQDGSLEQLMSGFVHQQDCSMGEFINTDKGENTLELVTCSLDSTIVAWNCFTGQQLFKITQAEIKGLEAPWISLSLAPETLTKGNSGVVACGSNNGLLAVINCNNGGAILHLSTVIELKPEQDELDASIKSISWSSKFSLMAIGLVCGEILLYDTSAWRVRHKFVLEDSVTKLMFDNDDLFASCINGKVYQFNARTGQEKFVCVGHNMGVLDFILLHPVANTGTEQKRKVITAGDEGVSLVFEVPN",Y2H interaction with Rpl10,[2],abolished the interaction between Sqt1 and Rpl10
Syo1-FTpA (natural protein) MGRSKKRSRASSSRLNPLRKAGSNDNNKDTNVVNKKLQPLLQNLSSVVPNDRSIALSSISVLCEDAHMRQLLLKEKLVPIILNKLLNDSNSDIVVESFGLLRNLSLEEGYDVSIYLWRSDIWTSITSNFGRIVESLSALQAAEQQPQLKPAGKSKIESKRLLFDFADNLLSLVVALSNGSDDILNEILTESKINEIFQVISQLLKYGVEKLPINLFNTTLDLIYDLSSESFEFIDHVSNNELLSQFLNGLSPALHPQANELTKVLIEGIHCQFLDMKITYDQCNKMIHSVCHSINNIDPVQLVNDINNPVEIGPATSKDESSKVITKIKDYNAKRNESMIKLQSIEIAIDLITAIIEIVASKYESPESQEVAIPEELINTLTNFLPHVFMILKDTFTSRILIGWNNLIWLFVSLSLTELSGELLTTLWSYVTQLDSQDDLSIKIGRMGCIWALLKLIFPDGAFESENRALINVQMLNNSGFARGIIEEFQNNNDLELQQKCINVLSTYAMIQGQIDANKEIGQFFIQTLTQLNVRPEILIEMTNSLFQIYGDASYDYNEPIFVRGGFLSILKDQVVPNLRQQFKMVDKNKNPELKERCHDCFTTLDSFIHYKMNENSTNQ,"enrichment of the RPL5 mRNA in the Syo1-FTpA purification (IgG-sepharose pull-down from cycloheximide-treated cells, TEV eluate, real-time qRT–PCR)",[4],100 fold
"Rpl10-(His)6: C-terminally (His)6-tagged Rpl10 (protein, left off: (His)6, C-terminal, kept, C-terminally (His)6-tagged Rpl10) MARRPARCYRYQKNKPYPKSRYNRAVPDSKIRIYDLGKKKATVDEFPLCVHLVSNELEQLSSEALEAARICANKYMTTVSGRDAFHLRVRVHPFHVLRINKMLSCAGADRLQQGMRGAWGKPHGLAARVDIGQIIFSVRTKDSNKDVVVEGLRRARYKFPGQQKIILSKKWGFTNLDRPEYLKKREAGEVKDDGAFVKFLSKKGSLENNIREFPEYFAAQA",co-purification with / interaction with Sqt1,[5],efficient co-purification of Sqt1-Flag
"full-length Rpl10: full-length ribosomal protein Rpl10 (protein, left off: Gal4 DNA-binding domain or Gal4 activation domain (which of the two is not stated), end not stated, kept) MARRPARCYRYQKNKPYPKSRYNRAVPDSKIRIYDLGKKKATVDEFPLCVHLVSNELEQLSSEALEAARICANKYMTTVSGRDAFHLRVRVHPFHVLRINKMLSCAGADRLQQGMRGAWGKPHGLAARVDIGQIIFSVRTKDSNKDVVVEGLRRARYKFPGQQKIILSKKWGFTNLDRPEYLKKREAGEVKDDGAFVKFLSKKGSLENNIREFPEYFAAQA",soluble expression in E. coli,[6],expressed as an insoluble protein
